Measured values taken from patent US20120213774A1 (Hoffmann-La Roche, published 2012).

Key:
[1] = target: T1, recombinant cyno ST2 Fc chimera (cynomolgus); test: competition ELISA: antibody against biotinylated human IL33 on captured cyno ST2 Fc chimera
T1 construct: also called cynomolgus ST2
Method: (§1) The test was performed on 384 well MaxiSorp™ microtiter plates (Sigma-Aldrich, Nunc. DE, Cat. No. 464718) at RT. After each incubation step plates were washed 3 times with PBST (Phosphate Buffered Saline Tween®-20). […] Thereafter the wells were blocked with PBS supplemented with 0.1% Tween®-20 and 2% BSA (Roche Diagnostics GmbH, DE) for 1 h. […] Dilutions of purified antibodies or supernatants from hybridoma/B-cells in PBS with 0.5% BSA and 0.05% Tween®-20 were incubated with the receptor protein for 1 h. Biotinylated human IL33 (PeproTech, US, Cat No. 500-P261) was added for an additional hour to build up the complex. IL33 was biotinylated with Sulfo-NHS-LC-Biotin (Thermo Scientific Pierce, US, Cat. No. 21327) according to the manufacturer's protocol and purified using Zeba™ Desalt Spin Column (Thermo Scientific Pierce, US, Cat. No. 89889). Binding of the biotinylated IL33 to the complex was detected with 1:4000 diluted streptavidin HRP (Roche Diagnostics GmbH, DE, Cat. No. 11089153001). After 1 h the plates were washed 6 times with PBST and developed with freshly prepared BM blue POD substrate solution (BM blue: 3,3′-5,5′-Tetramethylbenzidine, Roche Diagnostics GmbH, DE, Cat. No. 11484281001) for 12 minutes at RT. Absorbance was measured at 370 nm. […]

[2] = target: T2, human IL33R (ST2) on human cells (human, UniProt Q01638 19-556); test: cell-based or functional assay
T2 sequence (looked up): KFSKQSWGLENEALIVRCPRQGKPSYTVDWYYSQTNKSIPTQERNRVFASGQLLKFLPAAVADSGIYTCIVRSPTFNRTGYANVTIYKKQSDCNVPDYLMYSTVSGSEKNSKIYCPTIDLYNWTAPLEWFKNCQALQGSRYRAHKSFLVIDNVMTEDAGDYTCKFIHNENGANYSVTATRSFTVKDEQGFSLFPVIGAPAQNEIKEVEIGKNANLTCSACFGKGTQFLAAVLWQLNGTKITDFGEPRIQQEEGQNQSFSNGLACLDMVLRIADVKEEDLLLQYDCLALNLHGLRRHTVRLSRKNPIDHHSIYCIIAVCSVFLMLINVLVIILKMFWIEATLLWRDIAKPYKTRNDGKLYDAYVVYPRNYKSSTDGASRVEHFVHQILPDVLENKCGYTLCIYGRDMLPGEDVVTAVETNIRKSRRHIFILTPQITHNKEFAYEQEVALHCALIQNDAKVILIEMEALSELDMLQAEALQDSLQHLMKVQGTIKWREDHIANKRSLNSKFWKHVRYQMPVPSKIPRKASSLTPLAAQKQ

[3] = target: T3, recombinant human ST2/IL-1R4 Fc chimera (R&D Systems, Cat. No. 523-ST) (human, UniProt Q01638 19-328); test: competition ELISA: antibody against biotinylated human IL33 on captured human ST2/IL-1R4 Fc chimera
T3 construct: Bought product; also called ST2/IL-1R4 protein; not shown: Fc part of the bought chimera (captured by anti-human IgG Fc)
T3 sequence (looked up): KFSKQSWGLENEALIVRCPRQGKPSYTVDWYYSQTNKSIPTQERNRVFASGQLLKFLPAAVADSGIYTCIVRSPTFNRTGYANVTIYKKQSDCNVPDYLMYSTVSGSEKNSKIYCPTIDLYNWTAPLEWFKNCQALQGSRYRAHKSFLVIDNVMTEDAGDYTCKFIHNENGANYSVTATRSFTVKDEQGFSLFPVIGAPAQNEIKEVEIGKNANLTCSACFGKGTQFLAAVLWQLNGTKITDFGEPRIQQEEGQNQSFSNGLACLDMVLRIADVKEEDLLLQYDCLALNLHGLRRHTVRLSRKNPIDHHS
Method: as §1

[4] = target: cynomolgus IL33R (ST2) on cynomolgus NK cells (cynomolgus); test: cell-based or functional assay
[5] = target: T2, human IL33R (ST2) on human cells; test: cell-based or functional assay; remark: listed apart in the source
[6] = target: T4, Monomeric human ST2 ECD with 6His Avitag (human, UniProt Q01638 19-328); test: SPR (BIACORE T100, 37 C, pH 7.4), antibody captured by anti-human Fc, monomeric ST2 ECD in solution
T4 construct: extracellular domain; also called human ST2 ECD (His-Avitag monomer); not shown: 6His Avitag
T4 sequence (looked up): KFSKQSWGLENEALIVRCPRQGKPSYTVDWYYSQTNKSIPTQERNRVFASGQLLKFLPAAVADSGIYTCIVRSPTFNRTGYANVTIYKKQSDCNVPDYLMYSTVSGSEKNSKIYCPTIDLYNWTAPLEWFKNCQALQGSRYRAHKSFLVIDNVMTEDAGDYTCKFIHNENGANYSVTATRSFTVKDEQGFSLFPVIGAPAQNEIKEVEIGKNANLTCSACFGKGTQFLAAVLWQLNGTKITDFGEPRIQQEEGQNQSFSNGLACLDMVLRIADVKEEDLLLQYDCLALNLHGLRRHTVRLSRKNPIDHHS
Method: (§2) Monomeric human ST2 ECD with 6His Avitag™ (Avidity, LLC, US) was added in various concentrations in solution. Association was measured by injection of ST2 ECD for a contact time of 120 sec. (single cycle-kinetic) at 37° C.; dissociation was measured by washing the chip surface with buffer for 1800 sec. at 37° C. For calculation of apparent KD and other kinetic parameters the Langmuir 1:1 model was used.

[7] = target: T4, Monomeric human ST2 ECD with 6His Avitag; test: SPR (BIACORE T100, 37 C, pH 7.4), antibody captured by anti-human Fc, monomeric ST2 ECD in solution, apparent KD, 1:1 model
Method: as §2

Binder	IC50 [1] [nM]	NFkB IC50 [2] [nM]	IC50 [3] [nM]	IC50, IFNγ release of cynomolgus NK cells stimulated with human IL33 and cynomolgus IL-12 [4] [nM]	IC50, GM-CSF release of KU812 basophil cells stimulated with IL33 [5] [nM]	IC50, IFN-γ secretion by human NK cells stimulated with IL33 and IL-12 [5] [nM]	IC50, IL-5 release of KU812 basophil cells stimulated with IL33 [5] [nM]	IC50, IL-5 release of human Th2 cells restimulated with IL33 [5] [nM]	IC50, IL-5 release of primary mast cells stimulated with IL33 [5] [nM]	IC50, IL-13 release of KU812 basophil cells stimulated with IL33 [5] [nM]	IC50, IL-13 release of human Th2 cells restimulated with IL33 [5] [nM]	IC50, IL-13 release of primary mast cells stimulated with IL33 [5] [nM]	IC50, eosinophil viability (IL33 dependent survival) [5] [nM]	koff [6] [s⁻¹]	kon [6] [M⁻¹ s⁻¹]	t1/2 [6] [min]	Kd [7] [nM]
Antibody ra170 (rabbit IgG1) (antibody, V domains shown, Rabbit monoclonal from B cell cloning; they are assigned to this molecule; also called Mab ra170; clone Ra170) VH: QSVEESGGRLVTPGTPLTLTCTVSGFSLSSHDMSWVRQAPGKGLEWIGYIWSDDNTYYASWAKGRFTISKTSTTVDLKITSPTTEDTATYFCARDQYRSSGVSDYDIWGPGTLVTVSS VL: AAVLTQTPSPVSAAVGGTVTISCQSSQSVGNNNDLAWYQQKPGQPPKILIYKASTLASGVPSRFEGSGSGTQFTLTISDVQCDDAATYYCLGGYDDDADNTFGGGTEVVVK	0.13	0.025	0.32	0.109	1.31	0.27	1.48	2.77	≤ 0.2	3.49	1.1	≤ 0.4	1.3				
ra170 IgG4 SPLE (antibody, V domains shown) VH: QSVEESGGRLVTPGTPLTLTCTVSGFSLSSHDMSWVRQAPGKGLEWIGYIWSDDNTYYASWAKGRFTISKTSTTVDLKITSPTTEDTATYFCARDQYRSSGVSDYDIWGPGTLVTVSS VL: AAVLTQTPSPVSAAVGGTVTISCQSSQSVGNNNDLAWYQQKPGQPPKILIYKASTLASGVPSRFEGSGSGTQFTLTISDVQCDDAATYYCLGGYDDDADNTFGGGTEVVVKR														1.3e-05	4.6e+06	881	0.0027
humanized ra170 10.12 (antibody, V domains shown) VH: VQLVQSGAEVKKPGASVKVSCKASGFSLSSHDISWVRQAPGQGLEWMGYIWSDENTYYASWAQGRVTMTTDTSTSTAYMELRSLRSDDTAVYYCARDQYRSSGVSDYDIWGPGTLVTVSS VL: AAVMTQSPATLSVSPGERATLSCRSSQSVGNNNDLAWYQQKPGQAPRLLIYKASTRATGIPARFSGSGSGTEFTLTISSLQSEDFAVYYCLGGYDDDADNTFGGGTKVEIK		0.28				1.3								0.0051	4.9e+06	2	1.1
humanized ra170 11.12 (antibody, V domains shown) VH: VQLVQSGAEVKKPGASVKVSCKASGFSLSSHDISWVRQAPGQGLEWMGYIWSDESTYYASWAQGRVTMTTDTSTSTAYMELRSLRSDDTAVYYCARDQYRSSGVSDYDIWGPGTLVTVSS VL: AAVMTQSPATLSVSPGERATLSCRSSQSVGNNNDLAWYQQKPGQAPRLLIYKASTRATGIPARFSGSGSGTEFTLTISSLQSEDFAVYYCLGGYDDDADNTFGGGTKVEIK		0.04				1.8								0.00043	3.1e+06	27	0.14
